Test results taken from US11591580B2, “K85 mutation-containing plant EPSPS mutant, and encoding gene and application thereof” (GEVOTO LLC, priority 2017, dated 2023).

Experiments:
double knockout E. coli = assay: growth of E. coli transformed by genes encoding maize EPSPS (wild type and mutants) in culture media containing different glyphosate concentrations (Example 6, FIG. 2); assay type: cell-based
Text: E. coli transformed by the gene (SEQ ID NO: 9, which encoded the wild-type maize EPSPS represented by SEQ ID NO: 10) encoding the wild-type maize EPSPS was taken as a control group.
E. coli transformed by the gene (SEQ ID NO: 11, which encoded SEQ ID NO: 12) encoding the maize EPSPS mutant I that contained only a single mutation K94(85)I, was taken as Experiment Group 1.
E. coli transformed by the gene (with a nucleotide sequence represented by SEQ ID NO: 13, and the amino acid sequence of the encoded three-mutation maize EPSPS mutant is represented by SEQ ID NO: 14) encoding the maize EPSPS mutant that contained only three mutations G105(96)A, P110(101)S and K207(194)R but no mutation K94(85)I, was taken as Experiment Group 2.
E. coli transformed by the gene (SEQ ID NO: 15) encoding the maize EPSPS mutant (containing four mutations: K94(85)I, G105(96)A, P110(101)S and K207(194)R) provided in Example 3 was taken as Experiment Group 3.
The glyphosate resistance of the gene encoding the maize EPSPS mutant and the maize EPSPS mutant encoded thereby in the E. coli was verified by detecting the growth situation of the transformed E. coli in culture media containing different glyphosate concentrations (0, 1, 20, 50 mM). In the above, the E. coli used is double knockout E. coli.
Results are as shown in FIG. 2 (wherein Z0 represents a control group, Z1 represents Experiment Group 1, Z2 represents Experiment Group 2, and Z3 represents Experiment Group 3).

[1] = test system: transgenic rice seedlings; assay: glyphosate resistance of the EPSPS mutant in transgenic rice plants sprayed with glyphosate (Example 8, Table 1); assay type: in vivo, rice (Nipponbare); details: for survival of transformed rice seedlings (in words): 2× and 5× glyphosate dosages; for glyphosate resistance of transformed rice seedlings (in words): glyphosate sprayed at the 1× dosage
Text: A method for detecting the glyphosate resistance of the G1 soybean EPSPS mutant (SEQ ID NO: 20), G2 soybean EPSPS mutant (SEQ ID NO: 22) and G3 soybean EPSPS mutant (SEQ ID NO: 24) provided in Example 7, the R1 rice EPSPS mutant (SEQ ID NO: 4) provided in Example 5, and the Z1 maize EPSPS mutant (SEQ ID NO: 12) provided in Example 6 in the transgenic rice is as follows:
The plasmids (containing the EPSPS mutant gene) of the monoclonal resistant bacteria of pADV5-EPSPS in Examples 1-7 were extracted by a conventional method, followed by double enzyme digestion by Pac1 and BstEII, the small fragments were collected, and then the small fragments were ligated, using T4 DNA ligase, to the pGVP1 vectors that had undergone the same double enzyme digestion, to obtain a pGVP1-EPSPS vector having a structure as shown in FIG. 8.
In the present example, the glyphosate resistance of the EPSPS mutant in transgenic rice plants were verified. An experiment method is as follows:
The transgenic rice seedlings transplanted were uniformly arranged in a same experiment area (preventing leaves from overlapping). The areas occupied by the experiment groups and the control group were calculated, and according to the areas, glyphosate was sprayed at a 1× dosage of 1060 g/hectare (0.106 g/m^2). 2× dosage was 2120 g/hectare, 5× dosage was 5300 g/hectare, and 20× dosage was 21200 g/hectare.
Commercially available Roundup® 41% ammonium glyphosate was used. Roundup® ammonium glyphosate with corresponding volumes was taken according to the above sprayed concentrations, then diluted with 20 times of volume of water, and then uniformly sprayed on the plants in the experiment groups and the control group. After leaf surfaces were dry, the plants were moved into greenhouse or outdoor to cultivate.
After the glyphosate was sprayed at the 1× dosage, growth states of the plants in each group were observed and recorded on a 10th day, and glyphosate was sprayed to the survived plants at the 2× dosage. The growth states of the plants in each group were observed and recorded 10 days later, and glyphosate was sprayed to the survived plants at the 5× dosage. The growth states of the plants in each group were observed and recorded 10 days later, and glyphosate was sprayed to the survived plants at the 20× dosage. The growth states of the plants in each group were observed and recorded 10 days later, and results are shown in Table 1, wherein corresponding numbers of plants denoted by −, +, ++ and +++ are listed, and “%++&+++” is percentage of plant having medium and high glyphosate resistance to the total number of plants observed.

[2] = culture media containing 1 mM glyphosate
[3] = 1X dosage (1060 g/hectare glyphosate), recorded on 10th day
[4] = 2X dosage (2120 g/hectare) sprayed to plants surviving 1X, recorded 10 days later
[5] = 5X dosage (5300 g/hectare) sprayed to plants surviving 2X, recorded 10 days later
[6] = 20X dosage (21200 g/hectare) sprayed to plants surviving 5X, recorded 10 days later

| Molecule | growth of transformed E. coli (double knockout E. coli; [2]) | % ++&+++ (percentage of plant having medium and high glyphosate resistance to the total number of plants observed) [1, 3] [%] | number of plants with resistance + (low glyphosate resistance) [1, 3] | number of plants with resistance ++ (medium glyphosate resistance) [1, 3] | number of plants with resistance +++ (high glyphosate resistance) [1, 3] | number of plants with resistance − (no glyphosate resistance) [1, 3] | % ++&+++ (percentage of plant having medium and high glyphosate resistance to the total number of plants observed) [1, 4] [%] | number of plants with resistance + (low glyphosate resistance) [1, 4] | number of plants with resistance ++ (medium glyphosate resistance) [1, 4] | number of plants with resistance +++ (high glyphosate resistance) [1, 4] | number of plants with resistance − (no glyphosate resistance) [1, 4] | survival of transformed rice seedlings (in words) [1] | % ++&+++ (percentage of plant having medium and high glyphosate resistance to the total number of plants observed) [1, 5] [%] | number of plants with resistance + (low glyphosate resistance) [1, 5] | number of plants with resistance ++ (medium glyphosate resistance) [1, 5] | number of plants with resistance +++ (high glyphosate resistance) [1, 5] | number of plants with resistance − (no glyphosate resistance) [1, 5] | % ++&+++ (percentage of plant having medium and high glyphosate resistance to the total number of plants observed) [1, 6] [%] | number of plants with resistance + (low glyphosate resistance) [1, 6] | number of plants with resistance ++ (medium glyphosate resistance) [1, 6] | other results |
| --- | --- | --- | --- | --- | --- | --- | --- | --- | --- | --- | --- | --- | --- | --- | --- | --- | --- | --- | --- | --- | --- |
| Z1: maize EPSPS mutant I, SEQ ID NO: 12, containing only a single mutation K94(85)I (protein, Zea mays EPSPS mutant with mutation K94(85)I) MAVQAGAEEIVLQPIKEISGTVKLPGSKSLSNRILLLAALSEGTTVVDNLLNSEDVHYMLGALRTLGLSVEADKAAKRAVVVGCGGKFPVEDSIEEVQLFLGNAGTAMRPLTAAVTAAGGNATYVLDGVPRMRERPIGDLVVGLKQLGADVDCFLGTDCPPVRVNGIGGLPGGKVKLSGSISSQYLSALLMAAPLALGDVEIEIIDKLISIPYVEMTLRLMERFGVKAEHSDSWDRFYIKGGQKYKSPKNAYVEGDASSASYFLAGAAITGGTVTVEGCGTTSLQGDVKFAEVLEMMGAKVTWTETSVTVTGPPREPFGRKHLKAIDVNMNKMPDVAMTLAVVALFADGPTAIRDVASWRVKETERMVAIRTELTKLGASVEEGPDYCIITPPEKLNVTAIDTYDDHRMAMAFSLAACAEVPVTIRDPGCTRKTFPDYFDVLSTFVKN | obviously superior to that of the control group (Z0) | 10.5 | 1 | 2 | 0 | 16 | 0.0 | 3 | 0 | 0 | 16 | some of the rice seedlings transformed by the maize EPSPS mutant Z1 survived | 0.0 | 2 | 0 | 0 | 17 | 0.0 | 0 | 0 | growth of transformed E. coli (double knockout E. coli; culture media containing 0 mM glyphosate and 1 mM glyphosate): obviously superior to that of control group (Z0); number of plants with resistance +++ (high glyphosate resistance) [1, 6]: 0; number of plants with resistance − (no glyphosate resistance) [1, 6]: 19; glyphosate resistance of transformed rice seedlings (in words) [1]: obviously superior to that of Z0 |
| Z0: wild-type maize EPSPS represented by SEQ ID NO: 10; control group of Example 6 (protein, Zea mays) MAVQAGAEEIVLQPIKEISGTVKLPGSKSLSNRILLLAALSEGTTVVDNLLNSEDVHYMLGALRTLGLSVEADKAAKRAVVVGCGGKFPVEDSKEEVQLFLGNAGTAMRPLTAAVTAAGGNATYVLDGVPRMRERPIGDLVVGLKQLGADVDCFLGTDCPPVRVNGIGGLPGGKVKLSGSISSQYLSALLMAAPLALGDVEIEIIDKLISIPYVEMTLRLMERFGVKAEHSDSWDRFYIKGGQKYKSPKNAYVEGDASSASYFLAGAAITGGTVTVEGCGTTSLQGDVKFAEVLEMMGAKVTWTETSVTVTGPPREPFGRKHLKAIDVNMNKMPDVAMTLAVVALFADGPTAIRDVASWRVKETERMVAIRTELTKLGASVEEGPDYCIITPPEKLNVTAIDTYDDHRMAMAFSLAACAEVPVTIRDPGCTRKTFPDYFDVLSTFVKN | weak | 0.0 | 4 | 0 | 0 | 16 | 0.0 | 0 | 0 | 0 | 20 | no rice transformed by the wild-type maize EPSPS Z0 survived | 0.0 | 0 | 0 | 0 | 20 | 0.0 | 0 | 0 | number of plants with resistance +++ (high glyphosate resistance) [1, 6]: 0; number of plants with resistance − (no glyphosate resistance) [1, 6]: 20; glyphosate resistance of transformed rice seedlings (in words) [1]: no plant having medium or high glyphosate resistance |
